Test results taken from article PMC10716581, “Fanconi anemia-associated mutation in RAD51 compromises the coordinated action of DNA-binding and ATPase activities”.

Target: RAD51 WT (human, UniProt Q06609 1-339)
Assay: EMSA; 2 mM ATP, 10 mM Mg2+; 20 mM Hepes-NaOH pH 7.5, 0.1 mg/ml BSA, 1 mM DTT, 10 mM MgCl2, 150 mM KCl, 2 mM ATP or AMP-PNP or no nucleotide, 2.7 uM (nt) DNA, 37 C 10 min; 8% native PAGE in 1x TBE
Details: protein: recombinant; tags: N-terminal His-tag removed with thrombin; chain copies: 8; label: 5'-Cy5 on strand 1; blunt

RAD51 WT, sequence (Q06609 whole entry): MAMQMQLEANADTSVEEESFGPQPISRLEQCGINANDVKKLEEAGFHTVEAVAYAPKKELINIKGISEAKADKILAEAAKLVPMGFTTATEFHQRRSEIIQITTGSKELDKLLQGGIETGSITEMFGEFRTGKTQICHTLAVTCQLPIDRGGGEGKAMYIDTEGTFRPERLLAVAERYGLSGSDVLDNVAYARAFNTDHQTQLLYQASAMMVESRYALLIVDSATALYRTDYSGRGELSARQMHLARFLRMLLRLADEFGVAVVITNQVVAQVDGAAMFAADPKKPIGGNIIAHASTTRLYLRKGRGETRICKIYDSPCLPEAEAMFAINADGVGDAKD

B1: Cy5-OL4/OL5 40-mer (dsDNA)
DNA 1: TAATACAAAATAAGTAAATGAATAAACAGAGAAAATAAAG
DNA 2: CTTTATTTTCTCTGTTTATTCATTTACTTATTTTGTATTA
binding result: binds
